Assay results as given in the supplement of paper PMC5998384.

Tests used:
[1] = system: HeLa Kyoto; test: melting temperature (median over replicates), in situ; higher = more thermally stable
[2] = system: HeLa Kyoto; test: solubility in G1/S (NP-40 vs SDS abundance) (log2 ratio); higher = more soluble; conditions: cell cycle stage: G1/S
[3] = system: HeLa Kyoto; test: thermal stability score vs G1/S (z-score of summed log2 fold changes over temperatures); higher = more thermally stable than in G1/S
[4] = system: HeLa Kyoto; test: solubility change mitosis vs G1/S (difference of NP-40 vs SDS log2 ratios) (log2 ratio difference); higher = more soluble in mitosis
[5] = cell cycle stage: early G1 (4.5 h after nocodazole release)
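Throughout, for melting temperature (median over replicates), in situ: HeLa Kyoto cells synchronized by double thymidine or nocodazole block, proteins quantified by TMT10plex mass spectrometry, three independent biological replicates.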
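Throughout, for solubility change mitosis vs G1/S (difference of NP-40 vs SDS log2 ratios): synchronized HeLa Kyoto cells (double thymidine block for G1/S, nocodazole release for mitosis), protein amounts in NP-40 versus SDS lysates quantified by mass spectrometry, three biological replicates.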
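Throughout, for solubility in G1/S (NP-40 vs SDS abundance): HeLa Kyoto cells arrested at G1/S by double thymidine block, proteins quantified by TMT10plex mass spectrometry in mild NP-40 versus SDS extracts, three biological replicates.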
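Throughout, for thermal stability score vs G1/S (z-score of summed log2 fold changes over temperatures): synchronized HeLa Kyoto cells, proteins quantified by TMT10plex mass spectrometry, three biological replicates, mitosis taken 0.5 h after nocodazole release, G1/S directly after double thymidine block.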

MEQEPQNGEPAEIKIIREAYKKAFLFVNKGLNTDELGQKEEAKNYYKQGIGHLLRGISISSKESEHTGPGWESARQMQQKMKETLQNVRTRLEILEKGLATSLQNDLQEVPKLYPEFPPKDMCEKLPEPQSFSSAPQHAEVNGNTSTPSAGAVAAPASLSLPSQSCPAEAPPAYTPQAAEGHYTVSYGTDSGEFSSVGEEFYRNHSQPPPLETLGLDADELILIPNGVQIFFVNPAGEVSAPSYPGYLRIVRFLDNSLDTVLNRPPGFLQVCDWLYPLVPDRSPVLKCTAGAYMFPDTMLQAAGCFVGVVLSSELPEDDRELFEDLLRQMSDLRLQANWNRAEEENEFQIPGRTRPSSDQLKEASGTDVKQLDQGNKDVRHKGKRGKRAKDTSSEEVNLSHIVPCEPVPEEKPKELPEWSEKVAHNILSGASWVSWGLVKGAEITGKAIQKGASKLRERIQPEEKPVEVSPAVTKGLYIAKQATGGAAKVSQFLVDGVCTVANCVGKELAPHVKKHGSKLVPESLKKDKDGKSPLDGAMVVAASSVQGFSTVWQGLECAAKCIVNNVSAETVQTVRYKYGYNAGEATHHAVDSAVNVGVTAYNINNIGIKAMVKKTATQTGHTLLEDYQIVDNSQRENQEGAANVNVRGEKDEQTKEVKEAKKKDK [SPG20]
melting temperature ([1]; cell cycle stage: G1/S): 49.8 °C | melting temperature ([1]; cell cycle stage: mitosis): 50.4 °C | solubility in G1/S (log2) [2]: 0.205 | thermal stability score [3, 5]: 1.64 | thermal stability score ([3]; cell cycle stage: mitosis): 1.92 | solubility change mitosis (log2) [4]: -0.0384

MEVTGDAGVPESGEIRTLKPCLLRRNYSREQHGVAASCLEDLRSKACDILAIDKSLTPVTLVLAEDGTIVDDDDYFLCLPSNTKFVALASNEKWAYNNSDGGTAWISQESFDVDETDSGAGLKWKNVARQLKEDLSSIILLSEEDLQMLVDAPCSDLAQELRQSCATVQRLQHTLQQVLDQREEVRQSKQLLQLYLQALEKEGSLLSKQEESKAAFGEEVDAVDTGISRETSSDVALASHILTALREKQAPELSLSSQDLELVTKEDPKALAVALNWDIKKTETVQEACERELALRLQQTQSLHSLRSISASKASPPGDLQNPKRARQDPT [DFFA]
melting temperature ([1]; cell cycle stage: G1/S): 54.2 °C | melting temperature ([1]; cell cycle stage: mitosis): 54.5 °C | solubility in G1/S (log2) [2]: 0.392 | thermal stability score [3, 5]: -1.44 | thermal stability score ([3]; cell cycle stage: mitosis): -0.858 | solubility change mitosis (log2) [4]: 0.0192

MTDYGEEQRNELEALESIYPDSFTVLSENPPSFTITVTSEAGENDETVQTTLKFTYSEKYPDEAPLYEIFSQENLEDNDVSDILKLLALQAEENLGMVMIFTLVTAVQEKLNEIVDQIKTRREEEKKQKEKEAEEAEKQLFHGTPVTIENFLNWKAKFDAELLEIKKKRMKEEEQAGKNKLSGKQLFETDHNLDTSDIQFLEDAGNNVEVDESLFQEMDDLELEDDEDDPDYNPADPESDSAD [RWDD1]
melting temperature ([1]; cell cycle stage: G1/S): 52.7 °C | melting temperature ([1]; cell cycle stage: mitosis): 54 °C | solubility in G1/S (log2) [2]: 0.348 | thermal stability score [3, 5]: 0.855 | thermal stability score ([3]; cell cycle stage: mitosis): 0.947 | solubility change mitosis (log2) [4]: 0.0192

MGAYARASGVCARGCLDSAGPWTMSRALRPPLPPLCFFLLLLAAAGARAGGYETCPTVQPNMLNVHLLPHTHDDVGWLKTVDQYFYGIKNDIQHAGVQYILDSVISALLADPTRRFIYVEIAFFSRWWHQQTNATQEVVRDLVRQGRLEFANGGWVMNDEAATHYGAIVDQMTLGLRFLEDTFGNDGRPRVAWHIDPFGHSREQASLFAQMGFDGFFFGRLDYQDKWVRMQKLEMEQVWRASTSLKPPTADLFTGVLPNGYNPPRNLCWDVLCVDQPLVEDPRSPEYNAKELVDYFLNVATAQGRYYRTNHTVMTMGSDFQYENANMWFKNLDKLIRLVNAQQAKGSSVHVLYSTPACYLWELNKANLTWSVKHDDFFPYADGPHQFWTGYFSSRPALKRYERLSYNFLQVCNQLEALVGLAANVGPYGSGDSAPLNEAMAVLQHHDAVSGTSRQHVANDYARQLAAGWGPCEVLLSNALARLRGFKDHFTFCQQLNISICPLSQTAARFQVIVYNPLGRKVNWMVRLPVSEGVFVVKDPNGRTVPSDVVIFPSSDSQAHPPELLFSASLPALGFSTYSVAQVPRWKPQARAPQPIPRRSWSPALTIENEHIRATFDPDTGLLMEIMNMNQQLLLPVRQTFFWYNASIGDNESDQASGAYIFRPNQQKPLPVSRWAQIHLVKTPLVQEVHQNFSAWCSQVVRLYPGQRHLELEWSVGPIPVGDTWGKEVISRFDTPLETKGRFYTDSNGREILERRRDYRPTWKLNQTEPVAGNYYPVNTRIYITDGNMQLTVLTDRSQGGSSLRDGSLELMVHRRLLKDDGRGVSEPLMENGSGAWVRGRHLVLLDTAQAAAAGHRLLAEQEVLAPQVVLAPGGGAAYNLGAPPRTQFSGLRRDLPPSVHLLTLASWGPEMVLLRLEHQFAVGEDSGRNLSAPVTLNLRDLFSTFTITRLQETTLVANQLREAASRLKWTTNTGPTPHQTPYQLDPANITLEPMEIRTFLASVQWKEVDG [MAN2B1]
melting temperature ([1]; cell cycle stage: G1/S): 57.1 °C | melting temperature ([1]; cell cycle stage: mitosis): 56.6 °C | solubility in G1/S (log2) [2]: 0.313 | thermal stability score [3, 5]: -0.143 | thermal stability score ([3]; cell cycle stage: mitosis): -1.1 | solubility change mitosis (log2) [4]: -0.109

MHPPETTTKMASVRFMVTPTKIDDIPGLSDTSPDLSSRSSSRVRFSSRESVPETSRSEPMSEMSGATTSLATVALDPPSDRTSHPQDVIEDLSQNSITGEHSQLLDDGHKKARNAYLNNSNYEEGDEYFDKNLALFEEEMDTRPKVSSLLNRMANYTNLTQGAKEHEEAENITEGKKKPTKTPQMGTFMGVYLPCLQNIFGVILFLRLTWVVGTAGVLQAFAIVLICCCCTMLTAISMSAIATNGVVPAGGSYFMISRALGPEFGGAVGLCFYLGTTFAAAMYILGAIEIFLVYIVPRAAIFHSDDALKESAAMLNNMRVYGTAFLVLMVLVVFIGVRYVNKFASLFLACVIVSILAIYAGAIKSSFAPPHFPVCMLGNRTLSSRHIDVCSKTKEINNMTVPSKLWGFFCNSSQFFNATCDEYFVHNNVTSIQGIPGLASGIITENLWSNYLPKGEIIEKPSAKSSDVLGSLNHEYVLVDITTSFTLLVGIFFPSVTGIMAGSNRSGDLKDAQKSIPIGTILAILTTSFVYLSNVVLFGACIEGVVLRDKFGDAVKGNLVVGTLSWPSPWVIVIGSFFSTCGAGLQSLTGAPRLLQAIAKDNIIPFLRVFGHSKANGEPTWALLLTAAIAELGILIASLDLVAPILSMFFLMCYLFVNLACALQTLLRTPNWRPRFRYYHWALSFMGMSICLALMFISSWYYAIVAMVIAGMIYKYIEYQGAEKEWGDGIRGLSLSAARFALLRLEEGPPHTKNWRPQLLVLLKLDEDLHVKHPRLLTFASQLKAGKGLTIVGSVIVGNFLENYGEALAAEQTIKHLMEAEKVKGFCQLVVAAKLREGISHLIQSCGLGGMKHNTVVMGWPNGWRQSEDARAWKTFIGTVRVTTAAHLALLVAKNISFFPSNVEQFSEGNIDVWWIVHDGGMLMLLPFLLKQHKVWRKCSIRIFTVAQLEDNSIQMKKDLATFLYHLRIEAEVEVVEMHDSDISAYTYERTLMMEQRSQMLRHMRLSKTERDREAQLVKDRNSMLRLTSIGSDEDEETETYQEKVHMTWTKDKYMASRGQKAKSMEGFQDLLNMRPDQSNVRRMHTAVKLNEVIVNKSHEAKLVLLNMPGPPRNPEGDENYMEFLEVLTEGLERVLLVRGGGSEVITIYS [SLC12A6]
melting temperature ([1]; cell cycle stage: G1/S): 54.8 °C | melting temperature ([1]; cell cycle stage: mitosis): 54.4 °C | solubility in G1/S (log2) [2]: -0.0182 | thermal stability score [3, 5]: -0.231 | thermal stability score ([3]; cell cycle stage: mitosis): -0.0357 | solubility change mitosis (log2) [4]: 0.00121

MSQWYELQQLDSKFLEQVHQLYDDSFPMEIRQYLAQWLEKQDWEHAANDVSFATIRFHDLLSQLDDQYSRFSLENNFLLQHNIRKSKRNLQDNFQEDPIQMSMIIYSCLKEERKILENAQRFNQAQSGNIQSTVMLDKQKELDSKVRNVKDKVMCIEHEIKSLEDLQDEYDFKCKTLQNREHETNGVAKSDQKQEQLLLKKMYLMLDNKRKEVVHKIIELLNVTELTQNALINDELVEWKRRQQSACIGGPPNACLDQLQNWFTIVAESLQQVRQQLKKLEELEQKYTYEHDPITKNKQVLWDRTFSLFQQLIQSSFVVERQPCMPTHPQRPLVLKTGVQFTVKLRLLVKLQELNYNLKVKVLFDKDVNERNTVKGFRKFNILGTHTKVMNMEESTNGSLAAEFRHLQLKEQKNAGTRTNEGPLIVTEELHSLSFETQLCQPGLVIDLETTSLPVVVISNVSQLPSGWASILWYNMLVAEPRNLSFFLTPPCARWAQLSEVLSWQFSSVTKRGLNVDQLNMLGEKLLGPNASPDGLIPWTRFCKENINDKNFPFWLWIESILELIKKHLLPLWNDGCIMGFISKERERALLKDQQPGTFLLRFSESSREGAITFTWVERSQNGGEPDFHAVEPYTKKELSAVTFPDIIRNYKVMAAENIPENPLKYLYPNIDKDHAFGKYYSRPKEAPEPMELDGPKGTGYIKTELISVSEVHPSRLQTTDNLLPMSPEEFDEVSRIVGSVEFDSMMNTV [STAT1]
melting temperature ([1]; cell cycle stage: G1/S): 47.7 °C | melting temperature ([1]; cell cycle stage: mitosis): 48.5 °C | solubility in G1/S (log2) [2]: 0.104 | thermal stability score [3, 5]: 1.15 | thermal stability score ([3]; cell cycle stage: mitosis): 3.11 | solubility change mitosis (log2) [4]: -0.17
